Experimental data: publication PMC13397619

B1: NLV2 TCR alpha chain (CDR3α only) (parent)
chain: AGPMKTSYDKVI

Variants of: B1
Test: T-Switch: Jurkat TCRβ−/− cells expressing a CDR3 saturation-mutagenesis library, stained with two peptide-HLA-A*02:01 tetramers (original and novel peptide) plus anti-CD3, FACS-sorted into four gates, gDNA sequenced
Settings: tetramers 1 µg/mL, 30 min on ice, SP, DP and SW gates expanded about 10 days between rounds ('two to three rounds of selection' in the Methods), unresolved parent, parent is a CDR3 fragment, scale: fold enrichment, numbering: sequential-on-construct, sequence starts at 1
[1] = with both tetramers (double-negative gate, binds neither): HLA-A*02:01 with … and with …, gate DN: OPPOSITE: higher = more of the variant in the gate that binds neither peptide = LESS binding (or no expression; inferred). Fold enrichment of the CDR3 variant in one FACS gate of a two-tetram
[2] = with both tetramers (double-positive gate): HLA-A*02:01 with … and with …, gate DP: higher = more of the variant in the gate that binds both peptides. Fold enrichment of the CDR3 variant in one FACS gate of a two-tetramer stain. SP/DP/SW gates were expanded and re-sorted bef

Row | Variant | enrichment [1] | enrichment [2]
1 | […] (CDR3 as printed); K10Q derived by comparing it with the table's wild-type CDR3 AGPMKTSYDKVI | 0.706 | 0
2 | […] (CDR3 as printed); D9T derived by comparing it with the table's wild-type CDR3 AGPMKTSYDKVI | 0.889 | 0
3 | […] (CDR3 as printed); I12W derived by comparing it with the table's wild-type CDR3 AGPMKTSYDKVI | 0.924 | 0
4 | […] (CDR3 as printed); K5H derived by comparing it with the table's wild-type CDR3 AGPMKTSYDKVI | 0.696 | 0
5 | […] (CDR3 as printed); Y8A derived by comparing it with the table's wild-type CDR3 AGPMKTSYDKVI | 0.451 | 0
6 | […] (CDR3 as printed); P3G derived by comparing it with the table's wild-type CDR3 AGPMKTSYDKVI | 1 | 0
7 | […] (CDR3 as printed); D9Q derived by comparing it with the table's wild-type CDR3 AGPMKTSYDKVI | 0.673 | 0
8 | […] (CDR3 as printed); P3L derived by comparing it with the table's wild-type CDR3 AGPMKTSYDKVI | 1.13 | 0
9 | […] (CDR3 as printed); S7R derived by comparing it with the table's wild-type CDR3 AGPMKTSYDKVI | 0.927 | 0
10 | […] (CDR3 as printed); D9K derived by comparing it with the table's wild-type CDR3 AGPMKTSYDKVI | 0.961 | 0
11 | […] (CDR3 as printed); G2T derived by comparing it with the table's wild-type CDR3 AGPMKTSYDKVI | 0.533 | 0
12 | […] (CDR3 as printed); K5S derived by comparing it with the table's wild-type CDR3 AGPMKTSYDKVI | 0.492 | 0
13 | […] (CDR3 as printed); D9W derived by comparing it with the table's wild-type CDR3 AGPMKTSYDKVI | 1.34 | 0
14 | […] (CDR3 as printed); M4S derived by comparing it with the table's wild-type CDR3 AGPMKTSYDKVI | 0.52 | 0
15 | […] (CDR3 as printed); M4P derived by comparing it with the table's wild-type CDR3 AGPMKTSYDKVI | 1 | 0
16 | […] (CDR3 as printed); G2R derived by comparing it with the table's wild-type CDR3 AGPMKTSYDKVI | 0.977 | 0
17 | […] (CDR3 as printed); T6K derived by comparing it with the table's wild-type CDR3 AGPMKTSYDKVI | 1.04 | 0
18 | […] (CDR3 as printed); K5C derived by comparing it with the table's wild-type CDR3 AGPMKTSYDKVI | 1.03 | 0
19 | […] (CDR3 as printed); A1W derived by comparing it with the table's wild-type CDR3 AGPMKTSYDKVI | 0.77 | 0

Row | Variant | enrichment [1] | enrichment [2]
20 | […] (CDR3 as printed); Y8M derived by comparing it with the table's wild-type CDR3 AGPMKTSYDKVI | 1.1 | 0
21 | […] (CDR3 as printed); K10C derived by comparing it with the table's wild-type CDR3 AGPMKTSYDKVI | 1.06 | 0
22 | […] (CDR3 as printed); D9C derived by comparing it with the table's wild-type CDR3 AGPMKTSYDKVI | 0.717 | 0
23 | […] (CDR3 as printed); K5P derived by comparing it with the table's wild-type CDR3 AGPMKTSYDKVI | 0.356 | 0
24 | […] (CDR3 as printed); S7M derived by comparing it with the table's wild-type CDR3 AGPMKTSYDKVI | 1.3 | 0
25 | […] (CDR3 as printed); Y8E derived by comparing it with the table's wild-type CDR3 AGPMKTSYDKVI | 0.485 | 3.54
26 | […] (CDR3 as printed); K10T derived by comparing it with the table's wild-type CDR3 AGPMKTSYDKVI | 1.24 | 0
27 | […] (CDR3 as printed); V11T derived by comparing it with the table's wild-type CDR3 AGPMKTSYDKVI | 1.12 | 0
28 | […] (CDR3 as printed); D9N derived by comparing it with the table's wild-type CDR3 AGPMKTSYDKVI | 1.01 | 0
29 | […] (CDR3 as printed); V11R derived by comparing it with the table's wild-type CDR3 AGPMKTSYDKVI | 1.26 | 0
30 | […] (CDR3 as printed); D9E derived by comparing it with the table's wild-type CDR3 AGPMKTSYDKVI | 1.03 | 0
31 | […] (CDR3 as printed); S7F derived by comparing it with the table's wild-type CDR3 AGPMKTSYDKVI | 1.22 | 0
32 | […] (CDR3 as printed); M4N derived by comparing it with the table's wild-type CDR3 AGPMKTSYDKVI | 0.728 | 0
33 | […] (CDR3 as printed); K5M derived by comparing it with the table's wild-type CDR3 AGPMKTSYDKVI | 0.901 | 0
34 | […] (CDR3 as printed); K5Q derived by comparing it with the table's wild-type CDR3 AGPMKTSYDKVI | 0.51 | 0
35 | […] (CDR3 as printed); T6L derived by comparing it with the table's wild-type CDR3 AGPMKTSYDKVI | 1.1 | 0
36 | […] (CDR3 as printed); S7G derived by comparing it with the table's wild-type CDR3 AGPMKTSYDKVI | 0.911 | 0
37 | […] (CDR3 as printed); V11Q derived by comparing it with the table's wild-type CDR3 AGPMKTSYDKVI | 1.35 | 0
38 | […] (CDR3 as printed); G2W derived by comparing it with the table's wild-type CDR3 AGPMKTSYDKVI | 1.05 | 0

Row | Variant | enrichment [1] | enrichment [2]
39 | […] (CDR3 as printed); V11K derived by comparing it with the table's wild-type CDR3 AGPMKTSYDKVI | 1.49 | 0
40 | […] (CDR3 as printed); D9F derived by comparing it with the table's wild-type CDR3 AGPMKTSYDKVI | 1.2 | 0
41 | […] (CDR3 as printed); D9G derived by comparing it with the table's wild-type CDR3 AGPMKTSYDKVI | 1.23 | 0
42 | […] (CDR3 as printed); T6D derived by comparing it with the table's wild-type CDR3 AGPMKTSYDKVI | 1.18 | 0
43 | […] (CDR3 as printed); D9P derived by comparing it with the table's wild-type CDR3 AGPMKTSYDKVI | 1.22 | 0
44 | […] (CDR3 as printed); A1K derived by comparing it with the table's wild-type CDR3 AGPMKTSYDKVI | 1 | 0
45 | […] (CDR3 as printed); T6M derived by comparing it with the table's wild-type CDR3 AGPMKTSYDKVI | 1.45 | 0
46 | […] (CDR3 as printed); K10P derived by comparing it with the table's wild-type CDR3 AGPMKTSYDKVI | 0.876 | 0
47 | […] (CDR3 as printed); I12L derived by comparing it with the table's wild-type CDR3 AGPMKTSYDKVI | 0.907 | 0
48 | […] (CDR3 as printed); P3V derived by comparing it with the table's wild-type CDR3 AGPMKTSYDKVI | 1.02 | 0
49 | […] (CDR3 as printed); Y8F derived by comparing it with the table's wild-type CDR3 AGPMKTSYDKVI | 1.1 | 0
50 | […] (CDR3 as printed); A1Q derived by comparing it with the table's wild-type CDR3 AGPMKTSYDKVI | 0.89 | 0
51 | […] (CDR3 as printed); G2K derived by comparing it with the table's wild-type CDR3 AGPMKTSYDKVI | 0.928 | 0
52 | […] (CDR3 as printed); K10I derived by comparing it with the table's wild-type CDR3 AGPMKTSYDKVI | 1.1 | 0
53 | […] (CDR3 as printed); M4Y derived by comparing it with the table's wild-type CDR3 AGPMKTSYDKVI | 1.15 | 0
54 | […] (CDR3 as printed); Y8D derived by comparing it with the table's wild-type CDR3 AGPMKTSYDKVI | 0.393 | 40.5
55 | […] (CDR3 as printed); T6V derived by comparing it with the table's wild-type CDR3 AGPMKTSYDKVI | 0.56 | 0
56 | […] (CDR3 as printed); M4C derived by comparing it with the table's wild-type CDR3 AGPMKTSYDKVI | 0.681 | 0
57 | […] (CDR3 as printed); D9L derived by comparing it with the table's wild-type CDR3 AGPMKTSYDKVI | 0.93 | 0
